Target: the molecule itself
Assay: SEC; purified IscA in 20 mM Tris-HCl with 20 mM DTT or 5 mM TCEP; chromatograms showed no significant differences at 50, 150 or 1000 mM NaCl; self-association into dimers and higher species

B1: E. coli IscA protein (cluster-free) (natural protein)
chain: MSITLSDSAAARVNTFLANRGKGFGLRLGVRTSGCSGMAYVLEFVDEPTPEDIVFEDKGVKVVVDGKSLQFLDGTQLDFVKEGLNEGFKFTNPNVKDECGCGESFHV
notes: IscA of E. coli, recombinant, printed length 107 residues (11.5 kDa); cluster-free; 15N- or 13C/15N-labelled for NMR; also called alternative scaffold protein IscA; source: E. coli BL21 (DE3), pETM30 vector, purified (DEAE and Q anion exchange, Superdex 75 size exclusion)
binding result: binds

Reference: paper PMC4788688, “Chemical shift assignment of the alternative scaffold protein IscA” (Biomolecular Nmr Assignments, 2016)
